The values below come from FireProtDB (doi:10.1016/j.jmb.2006.01.055).

Several values for one entry are separate records, joined by “and”; a condition that tells them apart may be missing. Identical values can stand only once.

The conditions of the data set: Equus caballus, pH 5, 15 °C, Abs, CD, Fluorescence, Sodium acetate 0.1 M, reversible: Yes.
[1] abbreviates: GdnHCl, transition: 3, structure 1AKK.

Chain of Cytochrome c H34N, P00004 (P00004 whole entry H34N): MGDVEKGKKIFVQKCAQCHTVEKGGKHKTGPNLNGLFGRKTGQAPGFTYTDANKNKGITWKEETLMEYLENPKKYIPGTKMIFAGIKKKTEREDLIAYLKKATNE
Chain of Cytochrome c wild type, P00004 (P00004 whole entry): as the sequence (P00004 whole entry H34N) above, with N34H counted along it

Consider Cytochrome c H34N, P00004, for which the denaturant m value is, setting by setting: (GdnHCl, structure 1AKK) 4.8 kcal/mol/M; under setting [1], 1.7 kcal/mol/M and 3.08 kcal/mol/M; (Urea, structure 1AKK) 2.43 kcal/mol/M. In addition, the unfolding free energy is 10.8 kcal/mol (GdnHCl, structure 1AKK); 3.5 kcal/mol and 7.3 kcal/mol under setting [1]; 10.5 kcal/mol (Urea, structure 1AKK). Further, the “denaturant midpoint (higher = more stable)” value is 2.07 M and 2.34 M under setting [1]; 4 M and 4.81 M (Urea, transition: 3, structure 1AKK).

On to Cytochrome c wild type, P00004, for which, for the setting “GdnHCl”, the denaturant m value was found to be 4.39 kcal/mol/M and the unfolding free energy came out at 9.8 kcal/mol. Moreover, under “GdnHCl, transition: 3”, the denaturant m value is 1.34 kcal/mol/M and 3.05 kcal/mol/M; the “denaturant midpoint (higher = more stable)” value is 1.5 M and 2.55 M.
